Molecular target: hERG channel with a deleted PAS domain fused to Citrine (S620T) (human) (UniProt Q12809)
Assay: FRET or BRET

Substance: hERG PAS domain fused to CFP (from UniProt Q12809 1-135) (domain or fragment)
- Ratio A (F436/F500): 0.37
- Ratio A-Ratio A0 (proportional to FRET efficiency): 0.21

Source: article doi:10.1101/2024.07.21.604498
